The target in this data set is T1, Rv0792c (Mycobacterium tuberculosis) (UniProt O86331).
T1 sequence: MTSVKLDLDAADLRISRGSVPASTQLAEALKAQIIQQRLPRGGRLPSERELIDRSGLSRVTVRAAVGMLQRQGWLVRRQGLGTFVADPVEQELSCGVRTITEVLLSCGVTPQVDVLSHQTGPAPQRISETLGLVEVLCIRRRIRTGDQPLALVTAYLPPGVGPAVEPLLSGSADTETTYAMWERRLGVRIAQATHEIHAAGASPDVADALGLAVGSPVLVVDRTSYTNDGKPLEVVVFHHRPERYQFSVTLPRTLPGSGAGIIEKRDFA
Put plainly: ALISA.

“TAGGGTCTCGGATCGGAGGGATGGGCAGTGTGTGCGGTATGTTG [Rv0792c_5 aptamer (printed Rv0729c_5)]” came in with a binding signal of 90 % reduction.
Still for that read-out and setting: the figure for “TCGTATTCATCTCTACATCCGGTAATCCGCACATGAGTAATCC [Rv0792c_1 aptamer (printed Rv0729c_1)]” is 90 % reduction.
The term Kd denotes the constant that tells how readily two partners part at equilibrium. “TCTAGTCATTCGTCATAATCCCATCTGTTTCTTCCTCCTTCCGT [Rv0792c_2 aptamer (printed Rv0729c_2)]” yielded a Kd of 51 nM.

These data come from publication doi:10.1101/2021.09.17.460839.
